Here are results for 39 molecules from patent US20170044259A1 (CYTOMX THERAPEUTICS, published 2017).

One test addresses T1, nivolumab.
T1 construct: also called NV1; NV1 nivo
Kind of test: bacterial display clone with labeled NV1.

The next test deals with T2, pembrolizumab.
T2 construct: also called PM1; PM1 AB
Kind of test: bacterial display clone with labeled PM1.

Test [1] concerns the target T3, human PD-1-Fc (R and D systems, Minneapolis, Minn.) (human, UniProt Q15116 25-167).
T3 construct: bought; also called hPD-1-Fc; hPD-1; not shown: Fc part of the bought fusion
Nature of the test: plate ELISA on human PD-1-Fc; apparent KD. A general note: An ELISA detects its analyte on a solid surface through an enzyme-linked reagent.

The target of test [2] is T3, human PD-1-Fc (R and D systems, …). Nature of the test: plate ELISA on human PD-1-Fc; reference A1.5.
Test [3] shares this target. Nature of the test: plate ELISA on human PD-1-Fc; reference A1.5. The source holds these as a separate data set.
In the next test the target is T4, J43v2 mIgG2a.
T4 construct: also called J43 m2a; J43v2 m2a
Nature of the test: bacterial display clone with DyLight 650 labeled J43v2 m2a.

Numbering of substitutions follows the chain as printed.

T2 sequence (VH, as listed by the source, chain 1 of 2): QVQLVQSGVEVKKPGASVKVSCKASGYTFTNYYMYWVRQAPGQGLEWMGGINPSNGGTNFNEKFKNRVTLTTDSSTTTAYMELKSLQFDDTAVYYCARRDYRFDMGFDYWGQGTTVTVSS
T2 sequence (VL, as listed by the source, chain 2 of 2): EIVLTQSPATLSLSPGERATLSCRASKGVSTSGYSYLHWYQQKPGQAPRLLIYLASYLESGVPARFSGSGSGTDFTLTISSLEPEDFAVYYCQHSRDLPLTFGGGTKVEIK
T3 sequence (Q15116 25-167 limits assumed): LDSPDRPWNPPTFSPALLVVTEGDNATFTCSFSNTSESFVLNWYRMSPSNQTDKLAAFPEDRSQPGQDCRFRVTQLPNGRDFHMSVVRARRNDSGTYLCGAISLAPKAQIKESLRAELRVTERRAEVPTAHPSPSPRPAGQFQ
T1 sequence (VH, as listed by the source, chain 1 of 2): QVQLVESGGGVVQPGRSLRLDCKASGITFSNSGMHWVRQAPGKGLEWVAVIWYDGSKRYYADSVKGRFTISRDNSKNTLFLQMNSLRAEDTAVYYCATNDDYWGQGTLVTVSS
T1 sequence (VL, as listed by the source, chain 2 of 2): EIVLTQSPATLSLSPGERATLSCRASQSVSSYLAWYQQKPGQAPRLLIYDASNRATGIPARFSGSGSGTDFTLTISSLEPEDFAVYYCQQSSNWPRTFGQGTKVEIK
T4 sequence (VH, as listed by the source, chain 1 of 2): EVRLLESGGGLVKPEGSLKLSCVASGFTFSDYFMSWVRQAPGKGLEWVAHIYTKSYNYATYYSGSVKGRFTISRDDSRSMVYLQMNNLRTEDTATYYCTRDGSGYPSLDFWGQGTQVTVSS
T4 sequence (VL, as listed by the source, chain 2 of 2): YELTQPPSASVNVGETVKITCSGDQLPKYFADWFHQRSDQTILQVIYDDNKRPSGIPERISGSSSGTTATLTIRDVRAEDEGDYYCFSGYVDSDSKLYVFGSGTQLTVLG

Regarding RGCKKHTISTLTCPD (bacterial display clone) [masking moiety NV12], the binding result with nivolumab was “binds”.
In the case of VGQSCFSGLVCDRQL (bacterial display clone) [masking moiety PM10], the binding result with pembrolizumab was “binds”.
Take PRVACGEPDLCYSNT (bacterial display clone) [masking moiety NV11]: the binding result with nivolumab was “binds”.

B1: PD-1 1.5 PD017 2001 (antibody, human IgG4 S228P, kappa)
heavy: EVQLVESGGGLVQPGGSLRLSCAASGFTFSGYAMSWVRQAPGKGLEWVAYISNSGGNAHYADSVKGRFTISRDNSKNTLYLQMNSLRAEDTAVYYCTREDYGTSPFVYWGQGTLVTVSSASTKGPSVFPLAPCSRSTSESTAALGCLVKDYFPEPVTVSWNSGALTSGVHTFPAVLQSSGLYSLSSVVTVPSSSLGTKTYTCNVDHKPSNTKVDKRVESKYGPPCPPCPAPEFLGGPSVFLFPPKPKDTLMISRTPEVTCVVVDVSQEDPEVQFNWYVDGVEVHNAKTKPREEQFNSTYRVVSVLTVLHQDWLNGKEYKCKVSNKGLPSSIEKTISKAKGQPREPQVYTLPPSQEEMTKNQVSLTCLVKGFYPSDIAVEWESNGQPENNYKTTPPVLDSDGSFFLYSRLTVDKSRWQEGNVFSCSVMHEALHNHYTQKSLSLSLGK
light: QGQSGQGTTCNLYQQSSMFCNAGGGSSGGSISSGLLSGRSDNHGGGSDIQLTQSPSSLSASVGDRVTITCRASESVDAYGISFMNWFQQKPGKAPKLLIYAASNQGSGVPSRFSGSGSGTDFTLTISSMQPEDFATYYCQQSKDVPWTFGQGTKLEIKRTVAAPSVFIFPPSDEQLKSGTASVVCLLNNFYPREAKVQWKVDNALQSGNSQESVTEQDSKDSTYSLSSTLTLSKADYEKHKVYACEVTHQGLSSPVTKSFNRGEC
notes: also called PD-17
As to B1, in test [1], the Kd stood at 22 nM. In addition, in test [2], the “Masking Efficiency” value stood at 12. Also, in test [3], the “ME (masking efficiency, Kd of the activatable antibody divided by Kd of the parental antibody)” value came out at 20.

B2: PD-1 1.5 PD025 2001 (antibody, human IgG4 S228P, kappa)
heavy: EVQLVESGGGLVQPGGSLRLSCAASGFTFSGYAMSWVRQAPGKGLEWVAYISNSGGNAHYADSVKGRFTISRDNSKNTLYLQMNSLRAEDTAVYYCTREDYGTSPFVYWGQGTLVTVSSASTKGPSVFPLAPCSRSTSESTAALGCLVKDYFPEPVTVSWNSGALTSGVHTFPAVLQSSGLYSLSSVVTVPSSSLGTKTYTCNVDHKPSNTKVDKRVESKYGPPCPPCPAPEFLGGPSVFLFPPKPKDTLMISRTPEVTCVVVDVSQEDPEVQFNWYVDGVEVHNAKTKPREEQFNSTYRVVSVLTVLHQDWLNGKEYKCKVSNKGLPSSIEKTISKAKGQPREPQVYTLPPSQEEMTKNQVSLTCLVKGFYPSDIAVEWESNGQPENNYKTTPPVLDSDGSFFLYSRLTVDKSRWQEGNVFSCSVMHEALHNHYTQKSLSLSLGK
light: B1 light with T8S, T9R, N11S, L12V, Q14E, Q15V, M18G, F19L, N21D, A22W
As for B2, the “ME (masking efficiency, Kd of the activatable antibody divided by Kd of the parental antibody)” value in test [3] came out at 30.

B3: PD-1 1.5 PD026 2001 (antibody, human IgG4 S228P, kappa)
heavy: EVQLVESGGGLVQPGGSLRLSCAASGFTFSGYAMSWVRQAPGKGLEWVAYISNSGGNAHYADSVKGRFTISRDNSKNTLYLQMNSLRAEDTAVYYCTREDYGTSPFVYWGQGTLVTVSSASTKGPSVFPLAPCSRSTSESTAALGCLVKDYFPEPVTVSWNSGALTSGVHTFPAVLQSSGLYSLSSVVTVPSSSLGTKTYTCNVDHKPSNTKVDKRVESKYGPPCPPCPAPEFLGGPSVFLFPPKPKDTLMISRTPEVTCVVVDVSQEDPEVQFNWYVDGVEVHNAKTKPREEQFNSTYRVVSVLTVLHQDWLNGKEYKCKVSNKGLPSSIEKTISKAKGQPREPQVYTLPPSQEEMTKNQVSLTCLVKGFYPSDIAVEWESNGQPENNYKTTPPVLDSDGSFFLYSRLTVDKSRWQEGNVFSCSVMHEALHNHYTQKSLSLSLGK
light: B1 light with T8G, T9M, N11S, L12A, Q14A, Q15Y, M18K, F19L, N21T, A22I
As to B3, the “ME (masking efficiency, Kd of the activatable antibody divided by Kd of the parental antibody)” value in test [3] is 20.
For the molecule PRPQCHHRHNCPDHP (bacterial display clone) [masking moiety NV03], the binding result with nivolumab is “binds”.

B4: masking moiety MP008 (peptide)
peptide: ACRICQDHPKTKWNS
notes: bacterial display clone; also called MP08
Consider B4, for which, in the test with J43v2 mIgG2a, the binding result was “binds”.

B5: masking moiety MP013 (peptide)
peptide: HYTICMTHNKCKDMA
notes: bacterial display clone; also called MP13
Consider B5, for which the binding result with J43v2 mIgG2a is “binds”.
FCPPWLDYLGNKCMT (bacterial display clone) [masking moiety PM04]: the binding result with pembrolizumab is “binds”.

B6: masking moiety MP014 (peptide)
peptide: ANSCLAVEHKCKHNY
notes: bacterial display clone; also called MP14
For the molecule B6, the binding result in the test with J43v2 mIgG2a was “binds”.
For PNKPCPDLQCYVTNY (bacterial display clone) [masking moiety NV10], in the test with nivolumab, the binding result is reported as “binds”.

B7: masking moiety PM01 (peptide)
peptide: GCDFTSAKHNCGSGW
notes: bacterial display clone; also called PM001
Regarding B7, in the test with pembrolizumab, the binding result is on record as “binds”.
Still for that read-out and setting: next, WTYENCWASCQPHLE (bacterial display clone) [masking moiety PM08]: “binds”.

B8: masking moiety MP009 (peptide)
peptide: LIQCTGNLDHKCKHY
notes: bacterial display clone; also called MP09
As for B8, the binding result in the test with J43v2 mIgG2a was “binds”.
Turning to RGCPDFNPPSHCYTA (bacterial display clone) [masking moiety NV08], in the test with nivolumab, the binding result is on record as “binds”.

B9: A1.5 PD34 2001 (antibody, human IgG4 S228P, kappa)
heavy: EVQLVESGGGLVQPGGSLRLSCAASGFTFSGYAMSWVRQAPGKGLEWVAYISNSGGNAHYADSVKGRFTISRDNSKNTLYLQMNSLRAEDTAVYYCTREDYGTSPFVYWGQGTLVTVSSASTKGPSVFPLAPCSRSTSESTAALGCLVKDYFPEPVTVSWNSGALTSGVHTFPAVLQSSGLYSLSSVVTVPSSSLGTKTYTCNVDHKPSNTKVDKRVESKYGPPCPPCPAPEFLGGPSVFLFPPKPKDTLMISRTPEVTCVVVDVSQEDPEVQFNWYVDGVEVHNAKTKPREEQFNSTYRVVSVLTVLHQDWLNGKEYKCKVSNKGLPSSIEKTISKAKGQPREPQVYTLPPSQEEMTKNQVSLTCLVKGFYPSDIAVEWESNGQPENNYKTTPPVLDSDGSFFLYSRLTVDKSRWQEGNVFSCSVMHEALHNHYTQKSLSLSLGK
light: QGQSGQGTSYCSIEHYPCNTHHGGGSSGGSISSGLLSGRSDNHGGGSDIQLTQSPSSLSASVGDRVTITCRASESVDAYGISFMNWFQQKPGKAPKLLIYAASNQGSGVPSRFSGSGSGTDFTLTISSMQPEDFATYYCQQSKDVPWTFGQGTKLEIKRTVAAPSVFIFPPSDEQLKSGTASVVCLLNNFYPREAKVQWKVDNALQSGNSQESVTEQDSKDSTYSLSSTLTLSKADYEKHKVYACEVTHQGLSSPVTKSFNRGEC
notes: also called PD-1 1.5 PD034 2001; PD1 1.5 PD34 2001
Take B9: the “ME (masking efficiency, Kd of the activatable antibody divided by Kd of the parental antibody)” value in test [3] worked out at 42.

B10: masking moiety PM02 (peptide)
peptide: VGSNCWTGPACALTS
notes: bacterial display clone; also called PM002
Regarding B10, in the test with pembrolizumab, the binding result was “binds”.
For RDYCGPQSPDYCHEI (bacterial display clone) [masking moiety NV09], in the test with nivolumab, the binding result is “binds”.
Consider LMCADLHYNHYNCKY (bacterial display clone) [masking moiety PM06], for which, in the test with pembrolizumab, the binding result is listed as “binds”.
Turning to KCSRPAHQNPDRCSR (bacterial display clone) [masking moiety NV04], the binding result with nivolumab is “binds”.
With YTFGCPDRYCDRAAT (bacterial display clone) [masking moiety NV07], the binding result with nivolumab is on record as “binds”.
With KLTEDFSSAA (bacterial display clone) [masking moiety PM09], the binding result with pembrolizumab is recorded as “binds”.

B11: PD-1 1.5 PD009 2001 (antibody, human IgG4 S228P, kappa)
heavy: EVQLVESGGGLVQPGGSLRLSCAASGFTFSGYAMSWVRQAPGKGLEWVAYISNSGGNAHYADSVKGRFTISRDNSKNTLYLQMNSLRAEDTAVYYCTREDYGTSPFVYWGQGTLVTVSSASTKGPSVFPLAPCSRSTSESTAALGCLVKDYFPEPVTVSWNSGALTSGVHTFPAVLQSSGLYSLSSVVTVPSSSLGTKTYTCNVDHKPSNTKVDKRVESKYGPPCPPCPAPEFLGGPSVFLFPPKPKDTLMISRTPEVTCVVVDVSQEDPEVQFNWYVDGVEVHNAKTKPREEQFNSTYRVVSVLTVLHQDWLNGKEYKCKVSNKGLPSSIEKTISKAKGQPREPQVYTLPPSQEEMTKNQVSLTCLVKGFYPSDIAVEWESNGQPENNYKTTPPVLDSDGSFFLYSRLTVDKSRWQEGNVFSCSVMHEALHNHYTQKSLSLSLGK
light: QGQSGQGAPRTCYTYQCSSFYTGGGSSGGSISSGLLSGRSDNHGGGSDIQLTQSPSSLSASVGDRVTITCRASESVDAYGISFMNWFQQKPGKAPKLLIYAASNQGSGVPSRFSGSGSGTDFTLTISSMQPEDFATYYCQQSKDVPWTFGQGTKLEIKRTVAAPSVFIFPPSDEQLKSGTASVVCLLNNFYPREAKVQWKVDNALQSGNSQESVTEQDSKDSTYSLSSTLTLSKADYEKHKVYACEVTHQGLSSPVTKSFNRGEC
Regarding B11, the Kd in test [1] turned out to be 10 nM. In addition, the “Masking Efficiency” value in test [2] amounted to 6. The “ME (masking efficiency, Kd of the activatable antibody divided by Kd of the parental antibody)” value in test [3] turned out to be 2.

B12: masking moiety NV01 (peptide)
peptide: RYCHAANPDRFCGIY
notes: bacterial display clone; also called NV001
As to B12, the binding result in the test with nivolumab was “binds”.
Same read-out and setting: the result for ASYRCPDYKCSHTKH (bacterial display clone) [masking moiety NV05] reads “binds”.
In the case of ELCGWQSFSGVCTSE (bacterial display clone) [masking moiety PM07], the binding result with pembrolizumab is “binds”.
The same measure, in the same setting: next, HCIPDFTSAAGDCMR (bacterial display clone) [masking moiety PM12]: “binds”; ISHYCFSGKSCRD (bacterial display clone) [masking moiety PM11]: “binds”.
Regarding MSCWDFSSAQGCGQH (bacterial display clone) [masking moiety PM05], the binding result with pembrolizumab is reported as “binds”.

B13: masking moiety NV02 (peptide)
peptide: PRVCSTDGGDYCLLP
notes: bacterial display clone; also called NV002
Turning to B13, the binding result in the test with nivolumab was “binds”.

B14: PD-1 1.5 PD012 2001 (antibody, human IgG4 S228P, kappa)
heavy: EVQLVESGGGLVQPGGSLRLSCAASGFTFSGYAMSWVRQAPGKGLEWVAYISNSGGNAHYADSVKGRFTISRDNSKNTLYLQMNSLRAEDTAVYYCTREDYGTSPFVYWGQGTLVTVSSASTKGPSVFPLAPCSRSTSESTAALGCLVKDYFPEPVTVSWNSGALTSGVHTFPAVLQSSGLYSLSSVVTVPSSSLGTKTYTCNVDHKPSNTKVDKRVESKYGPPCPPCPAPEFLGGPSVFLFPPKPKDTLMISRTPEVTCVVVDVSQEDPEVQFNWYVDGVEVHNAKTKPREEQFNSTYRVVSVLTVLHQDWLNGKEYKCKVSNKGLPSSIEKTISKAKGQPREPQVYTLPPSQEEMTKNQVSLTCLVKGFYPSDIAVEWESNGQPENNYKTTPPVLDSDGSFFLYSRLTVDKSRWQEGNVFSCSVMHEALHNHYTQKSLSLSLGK
light: QGQSGQGNWLDCQFYSECSVYGGGGSSGGSISSGLLSGRSDNHGGGSDIQLTQSPSSLSASVGDRVTITCRASESVDAYGISFMNWFQQKPGKAPKLLIYAASNQGSGVPSRFSGSGSGTDFTLTISSMQPEDFATYYCQQSKDVPWTFGQGTKLEIKRTVAAPSVFIFPPSDEQLKSGTASVVCLLNNFYPREAKVQWKVDNALQSGNSQESVTEQDSKDSTYSLSSTLTLSKADYEKHKVYACEVTHQGLSSPVTKSFNRGEC
notes: also called PD-12
B14: the Kd in test [1] was 25 nM. In test [2], the “Masking Efficiency” value was determined as 14. Also, the “ME (masking efficiency, Kd of the activatable antibody divided by Kd of the parental antibody)” value in test [3] was 10.

B15: PD-1 1.5 PD006 2001 (antibody, human IgG4 S228P, kappa)
heavy: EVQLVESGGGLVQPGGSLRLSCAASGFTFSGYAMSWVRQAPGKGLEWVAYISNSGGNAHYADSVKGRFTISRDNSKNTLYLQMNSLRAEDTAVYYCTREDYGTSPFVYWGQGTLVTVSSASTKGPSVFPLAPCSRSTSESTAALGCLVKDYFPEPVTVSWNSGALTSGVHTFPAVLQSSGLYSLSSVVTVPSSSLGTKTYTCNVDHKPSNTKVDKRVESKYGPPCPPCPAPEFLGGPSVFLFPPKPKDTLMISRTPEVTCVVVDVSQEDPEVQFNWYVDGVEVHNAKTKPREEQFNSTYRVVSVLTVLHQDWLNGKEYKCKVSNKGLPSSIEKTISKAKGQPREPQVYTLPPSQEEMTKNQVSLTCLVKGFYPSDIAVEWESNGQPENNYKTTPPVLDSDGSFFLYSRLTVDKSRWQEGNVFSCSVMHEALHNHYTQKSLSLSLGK
light: QGQSGQGAPRCYMFASYCKSQYGGGSSGGSISSGLLSGRSDNHGGGSDIQLTQSPSSLSASVGDRVTITCRASESVDAYGISFMNWFQQKPGKAPKLLIYAASNQGSGVPSRFSGSGSGTDFTLTISSMQPEDFATYYCQQSKDVPWTFGQGTKLEIKRTVAAPSVFIFPPSDEQLKSGTASVVCLLNNFYPREAKVQWKVDNALQSGNSQESVTEQDSKDSTYSLSSTLTLSKADYEKHKVYACEVTHQGLSSPVTKSFNRGEC
As to B15, the Kd in test [1] is 71 nM. Further, in test [2], the “Masking Efficiency” value was 39. For the same molecule, the “ME (masking efficiency, Kd of the activatable antibody divided by Kd of the parental antibody)” value in test [3] stood at 30.

B16: PD-1 1.5 PD028 2001 (antibody, human IgG4 S228P, kappa)
heavy: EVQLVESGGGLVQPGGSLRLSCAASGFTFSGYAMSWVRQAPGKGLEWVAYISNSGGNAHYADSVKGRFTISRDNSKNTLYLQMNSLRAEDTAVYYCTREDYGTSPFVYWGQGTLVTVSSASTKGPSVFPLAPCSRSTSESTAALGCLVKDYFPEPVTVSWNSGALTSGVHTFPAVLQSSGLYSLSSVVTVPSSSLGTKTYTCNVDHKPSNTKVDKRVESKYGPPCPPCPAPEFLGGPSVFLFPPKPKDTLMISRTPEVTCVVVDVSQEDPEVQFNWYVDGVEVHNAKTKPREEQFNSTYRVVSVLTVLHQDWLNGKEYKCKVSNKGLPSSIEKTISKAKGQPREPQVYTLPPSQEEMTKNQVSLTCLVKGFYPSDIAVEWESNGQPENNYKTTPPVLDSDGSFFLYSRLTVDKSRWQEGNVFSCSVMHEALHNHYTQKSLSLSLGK
light: B15 light with A8F, P9Q, R10P, Y12L, Y17S, K19F, S20T, Q21S, Y22K
With B16, the “ME (masking efficiency, Kd of the activatable antibody divided by Kd of the parental antibody)” value in test [3] was 25.

B17: masking moiety MP011 (peptide)
peptide: SRQICADYNCHNKYK
notes: bacterial display clone; also called MP11
As to B17, in the test with J43v2 mIgG2a, the binding result is “binds”.
FCAVMFDFLSDRCLH (bacterial display clone) [masking moiety PM03]: the binding result with pembrolizumab was “binds”.

B18: masking moiety MP012 (peptide)
peptide: QPCNPQIDHKIKCIY
notes: bacterial display clone; also called MP12
On to B18, for which, in the test with J43v2 mIgG2a, the binding result was “binds”.

B19: masking moiety MP010 (peptide)
peptide: IPCHHSADHKHKCTS
notes: bacterial display clone; also called MP10
Regarding B19, the binding result with J43v2 mIgG2a is on record as “binds”.
LPRCPDHPIKCIETK (bacterial display clone) [masking moiety NV06]: the binding result with nivolumab is “binds”.
